Results: patent publication US20080020994

Test system: purified wild-type Gα13 pre-loaded with GDP
Sequence (chain, as listed by the source): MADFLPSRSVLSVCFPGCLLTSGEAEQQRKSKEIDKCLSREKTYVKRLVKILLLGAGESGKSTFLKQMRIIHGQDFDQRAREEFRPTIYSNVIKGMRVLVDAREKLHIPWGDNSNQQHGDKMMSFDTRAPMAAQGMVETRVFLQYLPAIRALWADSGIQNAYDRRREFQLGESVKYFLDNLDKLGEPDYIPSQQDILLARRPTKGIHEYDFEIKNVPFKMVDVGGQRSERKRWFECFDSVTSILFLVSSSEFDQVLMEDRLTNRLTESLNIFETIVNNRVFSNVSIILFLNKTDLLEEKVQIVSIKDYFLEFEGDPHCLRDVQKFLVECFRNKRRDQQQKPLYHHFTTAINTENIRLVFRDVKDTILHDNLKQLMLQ

## purified Rac1(GTPγS)
  guanine nucleotide exchange or GTPase activity: No significant changes in these activities were examined
